{"source": "paper PMC5142333", "about": "“The topology, structure and PE interaction of LITAF underpin a Charcot-Marie-Tooth disease type 1C” (BMC Biology, 2016)", "proteins": {"B1": {"name": "wild type LITAF (full length, recombinant) (natural protein, human, UniProt Q99732 1-161, looked up)", "chain": "MSVPGPYQAATGPSSAPSAPPSYEETVAVNSYYPTPPAPMPGPTTGLVTGPDGKGMNPPSYYTQPAPIPNNNPITVQTVYVQHPITFLDRPIQMCCPSCNKMIVSQLSYNAGALTWLSCGSLCLLGCIAGCCFIPFCVDALQDVDHYCPNCRALLGTYKRL", "notes": "Lipopolysaccharide-induced tumour necrosis factor-alpha factor (LITAF, SIMPLE), human, full length wild type; Kept soluble with detergent (1% DDM or 1% FC12 at lysis, 0.04% DDM or 0.125% FC12 afterwards); also called LITAF WT; full length wild type LITAF protein; source: C43(DE3) BL21 E. coli, purified in detergent (Ni-NTA, ULP1 cleavage, SEC; DDM or FC12); not shown: His6, N-terminal, cleaved; …"}}, "target": "the molecule itself", "assay": "SEC; Superdex 200 10/300 GL; recombinant LITAF constructs; wild type LITAF kept in detergent", "data": [{"protein": "B1", "values": [{"measurement": "binding result", "result": "binds"}]}]}
